Results on eleven molecules are retold here after PMC9844003, “A pH-dependent anti-CD47 antibody that selectively targets solid tumors and improves therapeutic efficacy and safety” (Journal of Hematology & Oncology, 2023).

Test [1] deals with T1, extracellular domain of CD47 fused to a His(×6)-Avi-tag (Homo sapiens, UniProt Q08722).
T1 construct: CD47, extracellular domain; also called CD47-ECD
Description: ELISA; CD47-ECD coated on plates; serial dilutions of phage-scFvs, detected with anti-M13-HRP; pH 7.4 and pH 6.0. Particulars: one partner purified.

The target of test [2] is T2, full-length human CD47 stably expressed on CHO cells (CHO-hCD47) (human, UniProt Q08722).
T2 construct: full-length human CD47, stably expressed on CHO cells; also called CHO-CD47; cell-surface CD47; source: CHO cells, stably expressing, on cells
T2 sequence (Q08722 19-323): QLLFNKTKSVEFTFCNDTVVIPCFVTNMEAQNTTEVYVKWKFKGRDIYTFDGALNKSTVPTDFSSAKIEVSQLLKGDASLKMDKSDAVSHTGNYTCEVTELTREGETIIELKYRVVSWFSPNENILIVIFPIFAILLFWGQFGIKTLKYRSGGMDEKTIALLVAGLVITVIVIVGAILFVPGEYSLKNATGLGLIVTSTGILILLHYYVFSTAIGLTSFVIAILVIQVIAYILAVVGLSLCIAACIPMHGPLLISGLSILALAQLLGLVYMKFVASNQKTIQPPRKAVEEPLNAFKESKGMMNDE
The test is described as follows: flow cytometry on cells; blocking assay of BC27: serially diluted antibody incubated with cells in the presence of bio-SIRPα-Fc, detected with streptavidin-FITC; pH 6.0, 6.5, 6.9 and 7.4; up to 1 µM antibody. Particulars: one partner purified.

For test [3], the target named is T1, extracellular domain of CD47 fused to a …. The test is described as follows: ELISA; CD47-ECD coated on plates; phage-scFv site saturation mutants of BC31M4, detected with anti-M13-HRP; pH 6.5 and pH 7.4. As to conditions: one partner purified. A general note: ELISA stands for enzyme-linked immunosorbent assay.
The target is the same in test [4]. The test is described as follows: ELISA; CD47-ECD coated on plates; serial dilutions of BC31M4 mutants in hIgG1 form; pH 7.4 and pH 6.8. As to conditions: both partners purified.
Test [5] shares this target. The test is described as follows: SPR; Biacore T200, 25 °C; anti-human IgG immobilised on a CM5 chip, antibodies (hIgG1 form) captured, twofold serially diluted CD47-ECD injected; pH 7.4 buffer; 1:1 binding model. Particulars: both partners purified. A general note: In SPR one partner is held on a chip, and binding of the other changes the refractive index at the surface.

For test [6] the target is unchanged. Description: SPR; Biacore T200, 25 °C; anti-human IgG immobilised on a CM5 chip, antibodies (hIgG1 form) captured, twofold serially diluted CD47-ECD injected; pH 6.8 buffer; 1:1 binding model. Particulars: both partners purified.
In test [7] the target is T2, full-length human CD47 stably expressed …. The test is described as follows: flow cytometry on cells; serially diluted antibodies (hIgG1 form) incubated with CHO-CD47 or tumor cells, detected with goat anti-human IgG-FITC; pH 6.8 and pH 7.4 separately. Particulars: one partner purified. In general terms: In flow cytometry, cells or beads pass a laser one at a time.
Test [8] addresses T3, cell-surface CD47 on Raji, Jurkat and MDA-231 tumor cells (human (endogenous in Raji, Jurkat, …, UniProt Q08722)).
T3 construct: CD47 endogenous on human tumor cell lines
The test is described as above. As to conditions: one partner purified.

Positions count from the first letter of the chain named. In names and notes the source's numbering stands.

T1 sequence (Q08722 whole entry, looked up, the tested form may be a part): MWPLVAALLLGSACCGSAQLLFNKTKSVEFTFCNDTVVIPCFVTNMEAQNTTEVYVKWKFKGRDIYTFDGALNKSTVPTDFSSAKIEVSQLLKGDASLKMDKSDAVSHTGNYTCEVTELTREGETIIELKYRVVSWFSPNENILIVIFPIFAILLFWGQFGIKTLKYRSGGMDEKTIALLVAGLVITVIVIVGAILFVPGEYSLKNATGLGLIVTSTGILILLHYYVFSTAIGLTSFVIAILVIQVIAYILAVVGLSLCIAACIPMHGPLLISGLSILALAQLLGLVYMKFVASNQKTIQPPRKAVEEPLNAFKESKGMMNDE
T3 sequence (Q08722 19-323): as the sequence (Q08722 19-323) above

B1: BC27 (phage-scFv form) (scFv, V domains shown)
VH: QVQLVQSGAEVKKPGASVKVSCKASGYTFTSYGISWVRQAPGQGLEWMGWISAYNGNTNYAQKLQGRVTMTTDTSTSTAYMELRSLRSDDTAVYYCARGKVYFDYWGQGTLVTVSS
VL: EIVLTQSPATLSLSPGERATLSCRASQSLSRNHLAWYQQKPGQPPRLLIHWASTRESGVPDRFSGSGSGTDFTLTISSLQAEDVAVYYCQQYYTASWTFGQGTKVEIK
notes: VH of BC27: as the variable region of the heavy chain of m6 (PDB 7WN8) except in HCDR3; scFv linker of the library; VL of BC27: as the variable region of the light chain of m6 (PDB 7WN8) except in LCDR3
B1: the binding result in test [1] is on record as “binds”.

B2: BC27 (hIgG1 form) (antibody, V domains shown)
VH: B1 VH
VL: B1 VL
notes: VH of BC27, parent of BC31M4 and BC31M5: as the variable region of the heavy chain of m6 (PDB 7WN8) except in HCDR3; constant region of the human IgG1 heavy chain (from the expression vector); VL of BC27: as the variable region of the light chain of m6 (PDB 7WN8) except in LCDR3; constant region of the light chain from the hIgG1 light-chain vector; IgG1; Random mutations were introduced only into …
For B2, in test [2], the binding result is given as “binds”.

B3: BC31M4 (phage-scFv form) with VL H38 replaced by lysine (scFv, V domains shown)
VH: B1 VH with K100A
VL: B1 VL with H33K, Y92H, Y93T, T94Q, A95N, S96T
notes: VH of BC31M4: as the variable region of the heavy chain of m6 (PDB 7WN8) with A instead of T at residue 108 of HCDR3 (IMGT numbering); scFv linker; VL of BC31M4 (as the variable region of the light chain of m6, PDB 7WN8) with H38 (LCDR1, IMGT numbering) changed; also called H38K
Regarding B3, the binding result in test [3] was “binds”.

B4: BC31M4 (hIgG1 form) with the 55R/107R substitution (antibody, V domains shown)
VH: B1 VH with K100A
VL: B1 VL with H50R, Y92R, Y93T, T94Q, A95N, S96T
notes: VH of BC31M4: as the variable region of the heavy chain of m6 (PDB 7WN8) with A instead of T at residue 108 of HCDR3 (IMGT numbering); constant region of the human IgG1 heavy chain (from the expression vector); VL of BC31M4 (as the variable region of the light chain of m6, PDB 7WN8) with histidine-to-arginine substitutions, IMGT numbering; constant region of the light chain from the hIgG1 …
For the molecule B4, the binding result in test [4] was “binds”.

B5: BC31M4 (phage-scFv form) with VL H107 replaced by arginine (scFv, V domains shown)
VH: B1 VH with K100A
VL: B1 VL with Y92R, Y93T, T94Q, A95N, S96T
notes: VH of BC31M4: as the variable region of the heavy chain of m6 (PDB 7WN8) with A instead of T at residue 108 of HCDR3 (IMGT numbering); scFv linker; VL of BC31M4 (as the variable region of the light chain of m6, PDB 7WN8) with H107 (LCDR3, IMGT numbering) changed
As to B5, the binding result in test [3] was “binds”.

B6: BC31M4 (hIgG1 form) with the 38R/55R substitution (antibody, V domains shown)
VH: B1 VH with K100A
VL: B1 VL with H33R, H50R, Y92H, Y93T, T94Q, A95N, S96T
notes: as for B4
B6: in test [4], the binding result was “binds”.

B7: BC31M4 (phage-scFv form) with VL H38 replaced by arginine (scFv, V domains shown)
VH: B1 VH with K100A
VL: B1 VL with H33R, Y92H, Y93T, T94Q, A95N, S96T
notes: VH of BC31M4: as the variable region of the heavy chain of m6 (PDB 7WN8) with A instead of T at residue 108 of HCDR3 (IMGT numbering); scFv linker; VL of BC31M4 (as the variable region of the light chain of m6, PDB 7WN8) with H38 (LCDR1, IMGT numbering) changed
For the molecule B7, the binding result in test [3] is reported as “binds”.

B8: BC31M5 (hIgG1 form) (antibody, V domains shown)
VH: B1 VH with K100T
VL: B1 VL with Y92H, Y93T, T94Q, A95N, S96T
notes: VH of BC31M5: as the variable region of the heavy chain of m6 (PDB 7WN8); constant region of the human IgG1 heavy chain (from the expression vector); VL of BC31M5: as the variable region of the light chain of m6 (PDB 7WN8); constant region of the light chain from the hIgG1 light-chain vector; IgG1
For the molecule B8, the “pH-dependence (ratio of KD at pH 7.4 to KD at pH 6.8)” value in test [5] is around 1.9 fold. Also, the “fold higher binding affinity than BC31M4 at pH 6.8” value in test [6] is around 3 fold.

B9: BC31M4 (hIgG1 form) (antibody, V domains shown)
VH: B1 VH with K100A
VL: B1 VL with Y92H, Y93T, T94Q, A95N, S96T
notes: VH of BC31M4: as the variable region of the heavy chain of m6 (BC31M5, PDB 7WN8) with alanine instead of threonine at residue 108 of HCDR3 (IMGT numbering); constant region of the human IgG1 heavy chain (from the expression vector); VL of BC31M4: as the variable region of the light chain of m6 (BC31M5, PDB 7WN8); only one amino acid (heavy chain 108) differs between the two antibodies; constant …
Take B9: the binding result in test [7] and in test [8] was “binds” throughout.

B10: BC31M4 (phage-scFv form) with VL H107 replaced by lysine (scFv, V domains shown)
VH: B1 VH with K100A
VL: B1 VL with Y92K, Y93T, T94Q, A95N, S96T
notes: VH of BC31M4: as the variable region of the heavy chain of m6 (PDB 7WN8) with A instead of T at residue 108 of HCDR3 (IMGT numbering); scFv linker; VL of BC31M4 (as the variable region of the light chain of m6, PDB 7WN8) with H107 (LCDR3, IMGT numbering) changed; also called H107K
Take B10: the binding result in test [3] is reported as “binds”.

B11: BC31M4 (phage-scFv form), wild type (scFv, V domains shown)
VH: B1 VH with K100A
VL: B1 VL with Y92H, Y93T, T94Q, A95N, S96T
notes: VH of BC31M4: as the variable region of the heavy chain of m6 (PDB 7WN8) with A instead of T at residue 108 of HCDR3 (IMGT numbering); scFv linker; VL of BC31M4: as the variable region of the light chain of m6 (PDB 7WN8); also called wild-type BC31M4
For the molecule B11, the binding result in test [3] is on record as “binds”.
